Laboratory results from patent US12291504B2, “Small molecule inhibition of sulfotransferase SULT1A3” (University of Pittsburgh—Of the Commonwealth System of …, priority 2018, dated 2025).

Substrate: Oc1ccc2ccc3cccc4ccc1c2c34
Assay: SULT1A3 inhibition studies, 1-HP initial-rate fluorescence assay
Format: biochemical, human
Details: other: WT enzyme; saturating PAPS (500 μM, 17 × Km); pH 7.5; 25.0 °C
Protocol: The initial rates of SULT catalyzed 1-HP sulfonation are plotted as a function of inhibitor concentration, and are normalized relative to [inhibitor]=0. Enzyme activity was monitored by the sulfonation dependent change in 1-HP fluorescence (λex=325 nm, λem=370 nm). Less than 5% of the concentration-limiting substrate converted at the reaction endpoint was consumed during initial-rate measurements. Each point is the average of three independent determinations. Conditions: SULT (20 nM, active sites), PAPS (0.50 mM, 17×Km), 1-HP (5.0 μM, 61×Km), KPO4 (50 mM), pH 7.5, 25±2° C.
(§1) Initial-Rate Studies. Initial-rate parameters for the labeled or mutant SULT1A3 constructs were determined using a previously described 1-HP assay (25). […] Reactions were monitored via fluorescence change associated with the conversion of 1-HP to 1-HP-S (λex=325 nm, λem=370 nm). […] Reaction progress curves were analyzed to obtain initial-rate parameters as described previously (26,27). […]
as §1, with “(47).” for “(25).”, “(48,49).” for “(26,27).”

B1: SULT1A3 (Homo sapiens) (protein)
chain: MELIQDTSRPPLEYVKGVPLIKYFAEALGPLQSFQARPDDLLINTYPKSGTTWVSQILDMIYQGGDLEKCNRAPIYVRVPFLEVNDPGEPSGLETLKDTPPPRLIKSHLPLALLPQTLLDQKVKVVYVARNPKDVAVSYYHFHRMEKAHPEPGTWDSFLEKFMAGEVSYGSWYQHVQEWWELSRTHPVLYLFYEDMKENPKREIQKILEFVGRSLPEETMDFMVQHTSFKEMKKNPMTNYTTVPQELMDHSISPFMRKGMAGDWKTTFTVAQNERFDADYAEKMAGCSLSFRSEL
notes: Wild-type and mutant SULT1A3 coding regions were inserted into a pGEX-6P expression vector; N-His/GST/MBP triple-tag (N, cleaved yes); made in house; host or cells: E. coli BL21(DE3)
- Km: 82 (3) nM
- kcat: 2 s⁻¹
